Test results as given in the DeepSol protein solubility set.

assay: soluble on expression in E. coli; label from the status in PepcDB or PDB records

Row | Sequence | soluble on expression in E. coli
1 | MSGHKCSYPWDLQDRYAQDKSVVNKMQQKYWETKQAFIKATGKKEDEHVVASDADLDAKLELFHSIQRTCLDLSKAIVLYQKRICFLSQEENELGKFLRSQGFQDKTRAGKMMQATGKALCFSSQQRLALRNPLCRFHQEVETFRHRAISDTWLTVNRMEQCRTEYRGALLWMKDVSQELDPDLYKQMEKFRKVQTQVRLAKKNFDKLKMDVCQKVDLLGASRCNLLSHMLATYQTTLLHFWEKTSHTMAAIHESFKGYQPYEFTTLKVWKLEGPLENLEKSKVLFISQAKSIAESIIIPGLRMLKRELCPQQSLFLSFFLFFYCIRIQYNENLLQSKSAN | soluble
2 | PRNSKNDGVDTAIYHHKLRDQVLKALYDVLAKESEHPPQSILHTAKAIESEMNKVNNCDTNEAAYKARYRIIYSNVISKNNPDLKHKIANGDITPEFLATCDAKDLAPAPLKQKIEEIAKQNLYNAQGATIERSVTDRFTCGKCKEKKVSYYQLQTRSADEPLTTFCTCEACGNRWKFS | soluble
3 | MSLSDKTMTADEAVSRLRSGMTLGIGGWGSRRKPMALVRALLRSGITDLTVVSCGGPDVGMLAAAGRIRKLVAAFVTLDSIPLEPHYRAARERGALELMEIDEAMFLWGLRAAAGRLPFLPVRAGIGSDVMRVNPGLRTITSPYVDGETFVAMPALRLDAALVHLNRADRLGNGQYLGPDPYFDDLFCEAADTAYVSCERVVDTAELTKEAAPQTLLVKRHTVTGVVEAEGHHHHHH | not soluble
4 | MAEKIKINNNVFIYPMPVTLLGANVKGKANLMALGWVSRVNANPPMLGVGVNKSHYTPEGIAENGSFSVNFPYSGMVKKTDYCGLVSGEKVDKSGLFEVFYGELKTAPMIKECTLNLECRVVETLEFPTNYFFVGEIIAAYSEEQYLIQGKPDIKKMDPLLLTMPDNSYWTVGDYAGAALKTGKSLMEKRHHHHHH | soluble
5 | MGSDKIHHHHHHMTQVHFTLKSEEIQSIIEYSVKDDVSKNILTTVFNQLMENQRTEYIQAKEYERTENRQSQRNGYYERSFTTRVGTLELKVPRTRDGHFSPTVFERYQRNEKALMASMLEMYVSGVSTRKVSKIVEELCGKSVSKSFVSSLTEQLEPMVNEWQNRLLSEKNYPYLMTDVLYIKVREENRVLSKSCHIAIGITKDGDREIIGFMIQSGESEETWTTFFEYLKERGLQGTELVISDAHKGLVSAIRKSFTNVSWQRCQVHFLRNIFTTIPKKNSKSFREAVKGIFKFTDINLAREAKNRLIHDYIDQPKYSKACASLDDGFEDAFQYTVQGNSHNRLKSTNLIERLNQEVRRREKIIRIFPNQTSANRLIGAVLMDLHDEWIYSSRKYINFDK | not soluble
6 | MKQVTVLLIGLGRMGSRFFDKFVEIGEERVKIVGVCELNEQNPKVLEAKKRNIPLYPSYKEALTDLHESVDIILDTSNISEVKRDIRELLSRQNNQHSVLLPMVADYLLWYMLPNAEEIPQDHTDIGY | not soluble
7 | MSLAAKVVPTLQQLAWQQMELTAFLHFGINTFTDSEWGDGKEDPALFNPVELDARQWVRILHEAGFRMVILTAKHHDGFCLWPTATTRHSVASSPWREGKGDVVKEVRAACEEYGMKFGIYLSPWDRNAECYGDSHRYNRFFVSQLTELLTHYGEVHEVWFDGANGEGPNGKRQEYDWETFYDTIRRLQPQAVMAIMGDDVRWVGNERGLGRTTEWSATVLTPGIYSRSKTERNRLGIRENSPDLGSREVLKEAGEIFWYPSEVDVSIRPGWFYHAAEDKKVKSLDKLVDIYFQSVGYNSVLLLNVPPDRRGLIHEADALRLKEWADYLGRAFAHDRVVDSARYAVVQGHAVEEYALESKTHINILMLQEDITKGQRTEAFTVEAWVDGAWQEIGRGTTIGYKRLLRIPAVETDRIRVRIEQCRLPVNLCRVAVYYAEGHHHHHH | soluble
8 | MAGDPMSIPFFSFSWAVMSNLTYLQGYPEQLLSQVRTLINEQRLGDVLAKRYPGTHDYATDKALWQYTQDLKNQFLRNAPPINKVMYDNKIHVLKNALGLHTAVSRVQGSKLKAKAEIRVATVFRNAPEPFLRMIVVHELAHLKEKEHNKAFYQLCCHMEPQYHQLEFDTRLWLTQLSLGQDKILEHHHHHH | not soluble
9 | MGSDKIHHHHHHMKGLYIGAAGMMNYMQHIQVHSNNVANAQTPGFKFDQLTSEVISRNKVNYQNGPVARQVGTIDYGVRPAATHINLTAGSSYITNRDRDFFMQDTDPTQGSNFFITAKNGEISLSRGGQFHSDQFGFLRTADGANLLSATGEAIQVGQKTSIRSEANGDLYNAETGQYLGRLGTKFVSANQADSLVKDGEGRLHVNGINTMNLPAGQGIIQNGVIETSNVDLGVEMVQLMDNQRMVQASKNVVNMFDKVYDKEATGLIRQ | not soluble
